Test results reported in publication PMC8060278 (Nature Communications, 2021).

Columns and labels:
GPIbα LBD (Homo sapiens) = GPIbα LBD (Homo sapiens) (UniProt P07359); conditions: cited from earlier work
purified VWF = target: T1, purified VWF (Homo sapiens, UniProt P04275); assay: ELISA; VWF coated on plates (6 μg/mL in PBS); VHH81 detected with HRP-conjugated anti-VHH antibody; conditions: both partners purified
T1 construct: von Willebrand factor

plasma-derived VWF = target: T2, plasma-derived VWF (Homo sapiens, UniProt P04275); assay: as above; conditions: both partners purified
T2 construct: von Willebrand factor from plasma (multimeric); In the flow-chamber functional row the VWF is that of human whole blood; also called plasma VWF; Humate-P; source: reconstituted in PBS from outdated lyophilized Humate-P (CSL-Behring)

Sequence of GPIbα LBD (Homo sapiens) (P07359 17-306): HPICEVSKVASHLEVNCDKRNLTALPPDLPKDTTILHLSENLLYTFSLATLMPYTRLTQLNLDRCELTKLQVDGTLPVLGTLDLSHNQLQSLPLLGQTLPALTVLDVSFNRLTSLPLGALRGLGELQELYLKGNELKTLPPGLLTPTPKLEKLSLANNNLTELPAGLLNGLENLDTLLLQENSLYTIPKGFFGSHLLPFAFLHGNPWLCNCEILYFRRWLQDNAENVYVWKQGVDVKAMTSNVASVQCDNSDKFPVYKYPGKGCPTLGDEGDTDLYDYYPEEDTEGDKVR

Kd (purified VWF)	Kd (plasma-derived VWF)	Molecule	Kd (GPIbα LBD (Homo sapiens))
–	–	von Willebrand factor AIM-A1 1238-1471 (from UniProt P04275)	32000 nM
~20 nM	~20 nM	monomeric recombinant VHH81 (construct not stated for this experiment) (VHH, also called PMP12A2h1; source: produced in bacteria) VHH: EVQLVESGGGLVQPGGSLRLSCAASGRTFSYNPMGWFRQAPGKGRELVAAISRTGGSTYYPDSVEGRFTISRDNAKRMVYLQMNSLRAEDTAVYYCAAAGVRAEDGRVRTLPSEYTFWGQGTQVTVSS	–
